Results published in IntAct's records for PubMed 16438971.

B1: Calcium-dependent protein kinase 11 (Arabidopsis thaliana (Mouse-ear cress)), Q39016 (parent)
chain: METKPNPRRPSNTVLPYQTPRLRDHYLLGKKLGQGQFGTTYLCTEKSTSANYACKSIPKRKLVCREDYEDVWREIQIMHHLSEHPNVVRIKGTYEDSVFVHIVMEVCEGGELFDRIVSKGHFSEREAVKLIKTILGVVEACHSLGVMHRDLKPENFLFDSPKDDAKLKATDFGLSVFYKPGQYLYDVVGSPYYVAPEVLKKCYGPEIDVWSAGVILYILLSGVPPFWAETESGIFRQILQGKLDFKSDPWPTISEAAKDLIYKMLERSPKKRISAHEALCHPWIVDEQAAPDKPLDPAVLSRLKQFSQMNKIKKMALRVIAERLSEEEIGGLKELFKMIDTDNSGTITFEELKAGLKRVGSELMESEIKSLMDAADIDNSGTIDYGEFLAATLHMNKMEREENLVAAFSYFDKDGSGYITIDELQSACTEFGLCDTPLDDMIKEIDLDNDGKIDFSEFTAMMRKGDGVGRSRTMMKNLNFNIADAFGVDGEKSDD
partner: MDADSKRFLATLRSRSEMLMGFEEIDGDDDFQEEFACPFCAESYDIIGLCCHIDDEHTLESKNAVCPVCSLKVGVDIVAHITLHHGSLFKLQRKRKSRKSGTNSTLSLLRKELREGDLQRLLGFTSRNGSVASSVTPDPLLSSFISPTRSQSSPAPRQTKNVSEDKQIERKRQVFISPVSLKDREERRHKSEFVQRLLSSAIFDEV
B2: Protein …ON-INDUCED 19 (Arabidopsis thaliana (Mouse-ear cress)), Q39083 (parent)
chain: B1 partner
partner: B1 chain

Variants of: B1
Settings: with di191_arath DI19-1, Q39083

Variant | effect of a mutation on the interaction
D150A | increasing interaction

Variants of: B1
Settings: with di191_arath DI19-1, Q39083
Remark: another data set of the same source

Variant | effect of a mutation on the interaction
D150A | disrupting interaction

Variants of: B1
Settings: with di191_arath DI19-1, Q39083
Remark: another data set of the same source

Variant | effect of a mutation on the interaction
D171A;F306A | increasing interaction
D150A;F306A | increasing interaction

Variants of: B1
Settings: with di191_arath DI19-1, Q39083
Remark: another data set of the same source

Variant | effect of a mutation on the interaction
F306A | increasing interaction

Variants of: B2
Settings: with cdpkb_arath CPK11, Q39016

Variant | effect of a mutation on the interaction
T105A | decreasing interaction
S107A | decreasing interaction
